Reference: patent US20200377573A1 (Daiichi Sankyo, published 2020)
Changes are numbered by the printed parent chain.

B1: peptide derivative H322AT (designed binder)
chain: DPQFGLFSKYRTPNCSQHEGMACYALYEPVCGSDMSTYANECTLCMKIREGGHNIKIIRNGPCGG
B2: peptide M7 (designed binder)
chain: B1 chain with Q17D, E19A, Y24V, L26F
B3: peptide H321 (designed binder)
chain: B1 chain with Q17D, H18F, E19D, L26F, A39M, T43A
B4: peptide H228 (designed binder)
chain: B1 chain with S16G, Q17H, H18Y, E19N, M21W, Y24Q, L26F, Y27F
B5: peptide derivative H308AT (designed binder)
chain: B1 chain with Q17D, E19A, Y24V
B6: peptide H223 (designed binder)
chain: B1 chain with S16T, Q17M, H18D, E19M, Y24W, L26F
B7: peptide H322 (designed binder)
chain: B1 chain with A39V, T43A
B8: peptide H218 (designed binder)
chain: B1 chain with S16L, Q17K, H18S, L26Y
B9: peptide H308 (designed binder)
chain: B1 chain with Q17D, E19A, Y24V, A39E, T43V
B10: peptide derivative H321AT (designed binder)
chain: B1 chain with Q17D, H18F, E19D, L26F
B11: peptide derivative H321AT_D1G_S16A (designed binder)
chain: B1 chain with D1G, S16A, Q17D, H18F, E19D, L26F
B12: peptide derivative H308_D1G_S16A (designed binder)
chain: B1 chain with D1G, S16A, Q17D, E19A, Y24V, A39E, T43V
B13: peptide derivative H322AT_D1G_S16A (designed binder)
chain: B1 chain with D1G, S16A

Target: T1, HTRA1 (cat) (human, UniProt Q92743 158-373)
Experiment: cell-based or functional assay

T1 sequence (Q92743 158-373, form in doubt): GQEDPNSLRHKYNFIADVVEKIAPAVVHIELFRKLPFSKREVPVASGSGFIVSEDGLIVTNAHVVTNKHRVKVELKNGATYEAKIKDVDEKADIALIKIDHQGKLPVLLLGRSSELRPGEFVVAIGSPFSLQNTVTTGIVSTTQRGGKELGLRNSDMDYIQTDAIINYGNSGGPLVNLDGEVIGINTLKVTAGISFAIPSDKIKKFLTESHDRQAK

B1 and B2 are within 1.5-fold of each other in “IC50 (nM) for HTRA1 (cat), decomposition rate of substrate peptide H2-Opt” value (from here on “IC50 (nM) for HTRA1 (cat)”): 45 nM for the first, 43 nM for the second.

B3 and B4 are within 1.5-fold of each other in “IC50 (nM) for HTRA1 (cat)” value: 48 nM for the first, 71 nM for the second.

B5 and B6 are within 1.5-fold of each other in “IC50 (nM) for HTRA1 (cat)” value: 49 nM for the first, 41 nM for the second.

B7 and B8 are within 1.5-fold of each other in “IC50 (nM) for HTRA1 (cat)” value: 50 nM for the first, 72 nM for the second.

B9 and B10 are within 1.5-fold of each other in “IC50 (nM) for HTRA1 (cat)” value: 37 nM for the first, 46 nM for the second.

Target: T2, HTRA1 (full) (human, UniProt Q92743 23-480)
Experiment: cell-based or functional assay

T2 sequence (Q92743 23-480): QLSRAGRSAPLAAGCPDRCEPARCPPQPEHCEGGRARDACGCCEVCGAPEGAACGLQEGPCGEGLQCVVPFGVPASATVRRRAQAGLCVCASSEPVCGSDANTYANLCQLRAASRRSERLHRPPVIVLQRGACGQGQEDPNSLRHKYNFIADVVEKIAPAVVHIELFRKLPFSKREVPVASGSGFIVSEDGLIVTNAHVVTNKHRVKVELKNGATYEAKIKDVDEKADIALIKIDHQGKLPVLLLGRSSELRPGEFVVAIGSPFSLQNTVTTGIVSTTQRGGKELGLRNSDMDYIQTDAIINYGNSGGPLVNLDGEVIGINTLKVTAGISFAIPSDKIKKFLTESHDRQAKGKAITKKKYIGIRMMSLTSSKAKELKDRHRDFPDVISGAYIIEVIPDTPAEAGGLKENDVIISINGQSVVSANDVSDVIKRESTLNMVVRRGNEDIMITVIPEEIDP

B1 and B2 are within 1.5-fold of each other in “IC50 (nM) for HTRA1 (full), decomposition rate of substrate peptide H2-Opt” value (from here on “IC50 (nM) for HTRA1 (full)”): 25 nM for the first, 24 nM for the second.

B3 and B4 are within 1.5-fold of each other in “IC50 (nM) for HTRA1 (full)” value: 29 nM for the first, 38 nM for the second.

Going from B5 to B6, the “IC50 (nM) for HTRA1 (full)” value rises from 31 nM to 66 nM (2.1-fold).

Going from B7 to B8, the “IC50 (nM) for HTRA1 (full)” value rises from 17 nM to 55 nM (3.2-fold).

B9 and B10 are within 1.5-fold of each other in “IC50 (nM) for HTRA1 (full)” value: 15 nM for the first, 18 nM for the second.

Target: T1, HTRA1 (cat)
Experiment: cell-based or functional assay
Remark: another data set of the same source

B11 and B12 are within 1.5-fold of each other in “IC50 (nM) for HTRA1 (cat)” value: 9 nM for the first, 7.9 nM for the second.

B13 was tested, and the “IC50 (nM) for HTRA1 (cat)” value was 12.9 nM.

Target: T2, HTRA1 (full)
Experiment: cell-based or functional assay
Remark: another data set of the same source

B11 and B12 are within 1.5-fold of each other in “IC50 (nM) for HTRA1 (full)” value: 12 nM for the first, 9.1 nM for the second.

In the case of B13, the “IC50 (nM) for HTRA1 (full)” value is reported as 12.2 nM.
